According to patent US20170015742A1 (published 2017):
Positions count from the first letter of the chain named.

B1: CODV012 cross-over DVD-Ig (PR-1571824) (bispecific antibody, human IgG1, kappa, L234A L235A)
heavy: EVQLVQSGSELKKPGASVKVSCKASGYTFTNYGMYWVRQAPGQGLEWMGWINTETGKPTYADDFKGRFVFSLDTSVSTAYLQISSLKAEDTAVYYCARTNYYYRSYIFYFDYWGQGTMVTVSSGGGGSGGGEFVLTQSPGTLSLSPGERATLSCERSSGDIGDSYVSWYQQKPGQAPRLVIYADDQRPSGIPDRFSGSGSGTDFTLTISRLEPEDFAVYYCQSYDINIDIVFGGGTKVEIKGGGSGASTKGPSVFPLAPSSKSTSGGTAALGCLVKDYFPEPVTVSWNSGALTSGVHTFPAVLQSSGLYSLSSVVTVPSSSLGTQTYICNVNHKPSNTKVDKKVEPKSCDKTHTCPPCPAPEAAGGPSVFLFPPKPKDTLMISRTPEVTCVVVDVSHEDPEVKFNWYVDGVEVHNAKTKPREEQYNSTYRVVSVLTVLHQDWLNGKEYKCKVSNKALPAPIEKTISKAKGQPREPQVYTLPPSREEMTKNQVSLTCLVKGFYPSDIAVEWESNGQPENNYKTTPPVLDSDGSFFLYSKLTVDKSRWQQGNVFSCSVMHEALHNAYTQKSLSLSPGK
light: EVTLRESGPALVKPTQTLTLTCTFSGFSLSTYGMGVGWIRQPPGKALEWLANIWWDDDKYYNPSLKNRLTISKDTSKNQVVLTMTNMDPVDTATYYCARIESIGTTYSFDYWGQGTMVTVSSGGGGSGGGDTVLTQSPATLSLSPGERATLSCRASESVSTHMHWYQQKPGQAPRLLIYGASNLESGVPARFSGSGSGTDFTLTISSLEPEDFAVYFCQQSWNDPFTFGQGTKLEIKGGGSGRTVAAPSVFIFPPSDEQLKSGTASVVCLLNNFYPREAKVQWKVDNALQSGNSQESVTEQDSKDSTYSLSSTLTLSKADYEKHKVYACEVTHQGLSSPVTKSFNRGEC
B2: CODV014 cross-over DVD-Ig (PR-1571826) (bispecific antibody, human IgG1, kappa, L234A L235A)
heavy: EVQLVQSGSELKKPGASVKVSCKASGYTFTNYGMYWVRQAPGQGLEWMGWINTETGKPTYADDFKGRFVFSLDTSVSTAYLQISSLKAEDTAVYYCARTNYYYRSYIFYFDYWGQGTMVTVSSGGGGSEFVLTQSPGTLSLSPGERATLSCERSSGDIGDSYVSWYQQKPGQAPRLVIYADDQRPSGIPDRFSGSGSGTDFTLTISRLEPEDFAVYYCQSYDINIDIVFGGGTKVEIKGGSASTKGPSVFPLAPSSKSTSGGTAALGCLVKDYFPEPVTVSWNSGALTSGVHTFPAVLQSSGLYSLSSVVTVPSSSLGTQTYICNVNHKPSNTKVDKKVEPKSCDKTHTCPPCPAPEAAGGPSVFLFPPKPKDTLMISRTPEVTCVVVDVSHEDPEVKFNWYVDGVEVHNAKTKPREEQYNSTYRVVSVLTVLHQDWLNGKEYKCKVSNKALPAPIEKTISKAKGQPREPQVYTLPPSREEMTKNQVSLTCLVKGFYPSDIAVEWESNGQPENNYKTTPPVLDSDGSFFLYSKLTVDKSRWQQGNVFSCSVMHEALHNAYTQKSLSLSPGK
light: B1 light
B3: CODV022 cross-over DVD-Ig (PR-1577056) (bispecific antibody, human IgG1, kappa, L234A L235A)
heavy: B1 heavy with D163E
light: EVTLRESGPALVKPTQTLTLTCTFSGFSLSTYGMGVGWIRQPPGKALEWLANIWWDDDKYYNPSLKNRLTISKDTSKNQVVLTMTNMDPVDTATYYCARIESIGTTYSFDYWGQGTMVTVSSGGGGSDTVLTQSPATLSLSPGERATLSCRASESVSTHMHWYQQKPGQAPRLLIYGASNLESGVPARFSGSGSGTDFTLTISSLEPEDFAVYFCQQSWNDPFTFGQGTKLEIKGGSRTVAAPSVFIFPPSDEQLKSGTASVVCLLNNFYPREAKVQWKVDNALQSGNSQESVTEQDSKDSTYSLSSTLTLSKADYEKHKVYACEVTHQGLSSPVTKSFNRGEC
B4: CODV021 cross-over DVD-Ig (PR-1577053) (bispecific antibody, human IgG1, kappa, L234A L235A)
heavy: B1 heavy with D163E
light: EVTLRESGPALVKPTQTLTLTCTFSGFSLSTYGMGVGWIRQPPGKALEWLANIWWDDDKYYNPSLKNRLTISKDTSKNQVVLTMTNMDPVDTATYYCARIESIGTTYSFDYWGQGTMVTVSSGGGGSGGGDTVLTQSPATLSLSPGERATLSCRASESVSTHMHWYQQKPGQAPRLLIYGASNLESGVPARFSGSGSGTDFTLTISSLEPEDFAVYFCQQSWNDPFTFGQGTKLEIKGGSRTVAAPSVFIFPPSDEQLKSGTASVVCLLNNFYPREAKVQWKVDNALQSGNSQESVTEQDSKDSTYSLSSTLTLSKADYEKHKVYACEVTHQGLSSPVTKSFNRGEC
B5: CODV013 cross-over DVD-Ig (PR-1571825) (bispecific antibody, human IgG1, kappa, L234A L235A)
heavy: EVQLVQSGSELKKPGASVKVSCKASGYTFTNYGMYWVRQAPGQGLEWMGWINTETGKPTYADDFKGRFVFSLDTSVSTAYLQISSLKAEDTAVYYCARTNYYYRSYIFYFDYWGQGTMVTVSSGGGGSGGGEFVLTQSPGTLSLSPGERATLSCERSSGDIGDSYVSWYQQKPGQAPRLVIYADDQRPSGIPDRFSGSGSGTDFTLTISRLEPEDFAVYYCQSYDINIDIVFGGGTKVEIKGGSASTKGPSVFPLAPSSKSTSGGTAALGCLVKDYFPEPVTVSWNSGALTSGVHTFPAVLQSSGLYSLSSVVTVPSSSLGTQTYICNVNHKPSNTKVDKKVEPKSCDKTHTCPPCPAPEAAGGPSVFLFPPKPKDTLMISRTPEVTCVVVDVSHEDPEVKFNWYVDGVEVHNAKTKPREEQYNSTYRVVSVLTVLHQDWLNGKEYKCKVSNKALPAPIEKTISKAKGQPREPQVYTLPPSREEMTKNQVSLTCLVKGFYPSDIAVEWESNGQPENNYKTTPPVLDSDGSFFLYSKLTVDKSRWQQGNVFSCSVMHEALHNAYTQKSLSLSPGK
light: B1 light
B6: CODV018 cross-over DVD-Ig (PR-1571831) (bispecific antibody, human IgG1, kappa, L234A L235A)
heavy: EFVLTQSPGTLSLSPGERATLSCERSSGDIGDSYVSWYQQKPGQAPRLVIYADDQRPSGIPDRFSGSGSGTDFTLTISRLEPEDFAVYYCQSYDINIDIVFGGGTKVEIKGGGSGGGDTVLTQSPATLSLSPGERATLSCRASESVSTHMHWYQQKPGQAPRLLIYGASNLESGVPARFSGSGSGTDFTLTISSLEPEDFAVYFCQQSWNDPFTFGQGTKLEIKGGGSGASTKGPSVFPLAPSSKSTSGGTAALGCLVKDYFPEPVTVSWNSGALTSGVHTFPAVLQSSGLYSLSSVVTVPSSSLGTQTYICNVNHKPSNTKVDKKVEPKSCDKTHTCPPCPAPEAAGGPSVFLFPPKPKDTLMISRTPEVTCVVVDVSHEDPEVKFNWYVDGVEVHNAKTKPREEQYNSTYRVVSVLTVLHQDWLNGKEYKCKVSNKALPAPIEKTISKAKGQPREPQVYTLPPSREEMTKNQVSLTCLVKGFYPSDIAVEWESNGQPENNYKTTPPVLDSDGSFFLYSKLTVDKSRWQQGNVFSCSVMHEALHNAYTQKSLSLSPGK
light: EVQLVQSGSELKKPGASVKVSCKASGYTFTNYGMYWVRQAPGQGLEWMGWINTETGKPTYADDFKGRFVFSLDTSVSTAYLQISSLKAEDTAVYYCARTNYYYRSYIFYFDYWGQGTMVTVSSGEVTLRESGPALVKPTQTLTLTCTFSGFSLSTYGMGVGWIRQPPGKALEWLANIWWDDDKYYNPSLKNRLTISKDTSKNQVVLTMTNMDPVDTATYYCARIESIGTTYSFDYWGQGTMVTVSSGGRTVAAPSVFIFPPSDEQLKSGTASVVCLLNNFYPREAKVQWKVDNALQSGNSQESVTEQDSKDSTYSLSSTLTLSKADYEKHKVYACEVTHQGLSSPVTKSFNRGEC
B7: DVD3904 DVD-Ig (PR-1565031) (bispecific antibody, human IgG1, kappa, L234A L235A)
heavy: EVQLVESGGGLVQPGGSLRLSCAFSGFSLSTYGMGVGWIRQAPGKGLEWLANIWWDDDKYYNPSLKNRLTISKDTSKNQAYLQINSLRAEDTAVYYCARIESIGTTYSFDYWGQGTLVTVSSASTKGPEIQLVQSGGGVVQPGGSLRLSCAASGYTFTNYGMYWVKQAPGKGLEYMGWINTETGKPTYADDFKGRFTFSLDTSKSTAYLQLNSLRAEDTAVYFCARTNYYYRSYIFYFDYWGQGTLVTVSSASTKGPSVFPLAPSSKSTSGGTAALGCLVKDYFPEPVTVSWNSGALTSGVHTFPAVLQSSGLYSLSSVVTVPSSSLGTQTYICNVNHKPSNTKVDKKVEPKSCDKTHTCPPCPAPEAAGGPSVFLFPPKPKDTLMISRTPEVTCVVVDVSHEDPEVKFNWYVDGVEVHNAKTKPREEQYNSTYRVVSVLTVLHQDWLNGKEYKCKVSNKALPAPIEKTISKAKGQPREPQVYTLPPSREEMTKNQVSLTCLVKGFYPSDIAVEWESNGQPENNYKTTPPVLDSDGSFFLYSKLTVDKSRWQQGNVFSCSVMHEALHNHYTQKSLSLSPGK
light: DFQLTQSPSSLSASVGDRVTITCERSSGDIGDSYVSWYQQKPGKAPKNVIYADDQRPSGVPSRFSGSGSGNSASLTISSLQPEDFATYFCQSYDINIDIVFGQGTKVEIKGTVAAPSVFIFPPDTVLTQSPSTLSASPGERATISCRASESVSTHMHWYQQKPGQAPKLLIYGASNLESGVPSRFSGSRSGTDFTLTISSLQPEDFAVYFCQQSWNDPFTFGQGTKVEIKRTVAAPSVFIFPPSDEQLKSGTASVVCLLNNFYPREAKVQWKVDNALQSGNSQESVTEQDSKDSTYSLSSTLTLSKADYEKHKVYACEVTHQGLSSPVTKSFNRGEC
B8: DVD3905 DVD-Ig (PR-1565032) (bispecific antibody, human IgG1, kappa, L234A L235A)
heavy: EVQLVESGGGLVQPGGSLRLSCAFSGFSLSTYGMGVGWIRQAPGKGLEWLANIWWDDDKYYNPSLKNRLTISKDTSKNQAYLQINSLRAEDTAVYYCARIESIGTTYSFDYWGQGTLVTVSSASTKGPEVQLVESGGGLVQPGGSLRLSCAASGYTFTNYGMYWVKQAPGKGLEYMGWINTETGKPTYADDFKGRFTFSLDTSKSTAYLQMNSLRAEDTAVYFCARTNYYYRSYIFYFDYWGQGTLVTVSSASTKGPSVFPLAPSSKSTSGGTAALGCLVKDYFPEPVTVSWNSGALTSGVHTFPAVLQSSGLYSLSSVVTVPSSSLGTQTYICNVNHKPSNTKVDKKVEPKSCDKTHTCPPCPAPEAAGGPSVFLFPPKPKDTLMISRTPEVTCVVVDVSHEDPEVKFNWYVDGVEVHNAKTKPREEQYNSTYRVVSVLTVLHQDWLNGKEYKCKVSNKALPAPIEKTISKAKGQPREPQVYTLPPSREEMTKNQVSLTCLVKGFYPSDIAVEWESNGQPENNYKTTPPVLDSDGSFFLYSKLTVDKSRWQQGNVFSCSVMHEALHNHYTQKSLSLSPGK
light: B7 light with V126Q, T133S, P138V, E140D, A142V, Q165K, R189G, V208T
B9: DVD3906 DVD-Ig (PR-1565035) (bispecific antibody, human IgG1, kappa, L234A L235A)
heavy: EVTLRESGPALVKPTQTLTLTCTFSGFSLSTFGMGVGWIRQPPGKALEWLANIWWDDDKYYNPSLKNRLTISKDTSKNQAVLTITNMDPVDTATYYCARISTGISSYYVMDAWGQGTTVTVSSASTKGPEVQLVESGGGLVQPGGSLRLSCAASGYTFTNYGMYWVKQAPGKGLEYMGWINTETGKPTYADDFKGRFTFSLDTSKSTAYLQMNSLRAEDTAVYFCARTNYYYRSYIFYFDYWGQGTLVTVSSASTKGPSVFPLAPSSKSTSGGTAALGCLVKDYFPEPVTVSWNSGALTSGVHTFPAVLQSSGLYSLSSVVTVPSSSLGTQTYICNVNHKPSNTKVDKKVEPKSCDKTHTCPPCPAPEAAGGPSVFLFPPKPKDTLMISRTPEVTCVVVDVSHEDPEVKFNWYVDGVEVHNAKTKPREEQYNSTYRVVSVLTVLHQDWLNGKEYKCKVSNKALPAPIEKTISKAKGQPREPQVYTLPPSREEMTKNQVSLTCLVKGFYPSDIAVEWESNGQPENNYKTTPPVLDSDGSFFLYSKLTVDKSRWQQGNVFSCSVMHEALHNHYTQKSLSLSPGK
light: DFQLTQSPSSLSASVGDRVTITCERSSGDIGDTYVSWYQQKPGKAPKNVIYGNDQRPSGVPSRFSGSGSGNSATLTISSLQPEDFATYFCQSYDSDIDIVFGQGTKVEIKGTVAAPSVFIFPPDTQLTQSPSSLSASVGDRVTISCRASESVSTHMHWYQQKPGKAPKLLIYGASNLESGVPSRFSGSGSGTDFTLTISSLQPEDFATYFCQQSWNDPFTFGQGTKVEIKRTVAAPSVFIFPPSDEQLKSGTASVVCLLNNFYPREAKVQWKVDNALQSGNSQESVTEQDSKDSTYSLSSTLTLSKADYEKHKVYACEVTHQGLSSPVTKSFNRGEC
B10: CODV017 cross-over DVD-Ig (PR-1571830) (bispecific antibody, human IgG1, kappa, L234A L235A)
heavy: DTVLTQSPATLSLSPGERATLSCRASESVSTHMHWYQQKPGQAPRLLIYGASNLESGVPARFSGSGSGTDFTLTISSLEPEDFAVYFCQQSWNDPFTFGQGTKLEIKGGGSGGGEFVLTQSPGTLSLSPGERATLSCERSSGDIGDSYVSWYQQKPGQAPRLVIYADDQRPSGIPDRFSGSGSGTDFTLTISRLEPEDFAVYYCQSYDINIDIVFGGGTKVEIKGGGSGASTKGPSVFPLAPSSKSTSGGTAALGCLVKDYFPEPVTVSWNSGALTSGVHTFPAVLQSSGLYSLSSVVTVPSSSLGTQTYICNVNHKPSNTKVDKKVEPKSCDKTHTCPPCPAPEAAGGPSVFLFPPKPKDTLMISRTPEVTCVVVDVSHEDPEVKFNWYVDGVEVHNAKTKPREEQYNSTYRVVSVLTVLHQDWLNGKEYKCKVSNKALPAPIEKTISKAKGQPREPQVYTLPPSREEMTKNQVSLTCLVKGFYPSDIAVEWESNGQPENNYKTTPPVLDSDGSFFLYSKLTVDKSRWQQGNVFSCSVMHEALHNAYTQKSLSLSPGK
light: EVTLRESGPALVKPTQTLTLTCTFSGFSLSTYGMGVGWIRQPPGKALEWLANIWWDDDKYYNPSLKNRLTISKDTSKNQVVLTMTNMDPVDTATYYCARIESIGTTYSFDYWGQGTMVTVSSGEVQLVQSGSELKKPGASVKVSCKASGYTFTNYGMYWVRQAPGQGLEWMGWINTETGKPTYADDFKGRFVFSLDTSVSTAYLQISSLKAEDTAVYYCARTNYYYRSYIFYFDYWGQGTMVTVSSGGRTVAAPSVFIFPPSDEQLKSGTASVVCLLNNFYPREAKVQWKVDNALQSGNSQESVTEQDSKDSTYSLSSTLTLSKADYEKHKVYACEVTHQGLSSPVTKSFNRGEC

What follows are binders tested against recombinant human PDGF-BB (human, UniProt P01127 82-190) (assay: cell-based or functional assay).
recombinant human PDGF-BB, sequence (P01127 82-190 limits assumed): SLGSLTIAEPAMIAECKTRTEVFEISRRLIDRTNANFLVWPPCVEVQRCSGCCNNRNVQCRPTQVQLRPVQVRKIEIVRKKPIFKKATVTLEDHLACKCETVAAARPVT

Binder	NIH-3T3 hPDGF-BB Potency IC50
B1	182 pM
B2	469 pM
B3	59 pM
B4	56 pM
B5	110 pM
B6	> 5000 pM
B7	> 5000 pM
B8	> 5000 pM
B9	> 5000 pM
B10	> 5000 pM
